The text below walks through data of EP1481685A1.

Holding throughout (assay): cell-based or functional assay
Assay [1] concerns the target adenylyl cyclase (AC) in rat dorsal root ganglia (DRG) lysates (predominant isoforms AC type 4 and 6).
In assay [2] the target is adenylyl cyclase (AC) in rat spinal cord lysates / membranes (major isoforms AC type 5 and 6).
Assay [3] has the same target. This is another data set of the same source.

Where two headings read alike, the source gives them in different places.

Take “PAM (Protein Associated with Myc), full length, purified from HeLa cells (from UniProt O75592 1-4678)”: the inhibition of Gαs-stimulated AC activity, DRG lysates, 30 nM PAM (% inhibition at 30 nM) in assay [1] is 32. In assay [2], this substance came in with an inhibition of Gαs-stimulated AC activity, spinal cord lysates from animals treated 1 hour with formalin, 30 nM PAM (% inhibition at 30 nM) of 25; an inhibition of Gαs-stimulated AC activity, spinal cord lysates from rats 96 hours after zymosan injection, 30 nM PAM (% inhibition at 30 nM) of 70; an inhibition of Gαs-stimulated AC activity, spinal cord lysates of control animals, 30 nM PAM (% inhibition at 30 nM) of 49; an inhibition of Gαs-stimulated AC activity, spinal cord preparations of zymosan-treated animals of 75 % inhibition. In assay [3], this substance returned an inhibition of Gαs-stimulated AC activity, spinal cord lysates of control animals, 30 nM PAM (% inhibition at 30 nM) of 50.
